Source: article PMC2500128 (The Journal of Cell Biology, 2008)
Where two headings read alike, the source gives them in different places.

How the values were obtained:
[1] = biological target: microtubules (Cy5-labeled tubulin from porcine brain) (porcine (purified from porcine brain)) (UniProt P02550); assay: single-molecule fluorescence motility assay
[2] = biological target: microtubules (Cy5-labeled tubulin from porcine brain) (porcine (purified from porcine brain)) (UniProt P02550); assay: single-molecule fluorescence motility assay; remark: listed apart in the source
[3] = biological target: the molecule itself; assay: single-molecule fluorescence and photobleaching

“Eg5-513-GFP (from UniProt P28025 1-513) (domain or fragment)” was tested, and the time bound to the microtubule [1] was under 2 s.

“full-length Xenopus laevis Eg5-GFP (from UniProt P28025 1-1067) (natural protein)” showed an average duration of motile events (binding events) [1] of 34 s and an average duration of motile events (binding events) [2] of 16 s.

B1: Eg5-513-GFP (domain or fragment, X. laevis)
chain: MSSQNSFMASKKEDKGKNIQVVVRCRPFNQLERKASSHSVLECDSQRKEVYVRTGEVNDKLGKKTYTFDMVFGPAAKQIEVYRSVVCPILDEVIMGYNCTIFAYGQTGTGKTFTMEGERSSDEEFTWEQDPLAGIIPRTLHQIFEKLSENGTEFSVKVSLLEIYNEELFDLLSPSPDVGERLQMFDDPRNKRGVIIKGLEEISVHNKDEVYHILERGAARRKTASTLMNAYSSRSHSVFSVTIHMKETTVDGEELVKIGKLNLVDLAGSENIGRSGAVDKRAREAGNINQSLLTLGRVITALVERTPHIPYRESKLTRILQDSLGGRTKTSIIATVSPASINLEETVSTLDYANRAKSIMNKPEVNQKLTKKALIKEYTEEIERLKRELAAAREKNGVYLSSENYEQLQGKVLSQEEMITEYTEKITAMEEELKSISELFADNKKELEECTTILQCKEKELEETQNHLQESKEQLAQESFVVSAFETTEKKLHGTANKLLSTVRETTRDVSGLGSSGGGGSGGGGSGGGGS
For B1, the “stoichiometry N” value [3] was 2.
